Measured values published in the supplement of paper PMC10724198.
± gives the standard deviation of the averaged measurements.

Test system: Saccharomyces cerevisiae
Test: protein stability index of tFT-peptide fusion (C-terminal peptide) (PSI (0-1 scale)); higher = more stable (slower turnover)
Conditions: temperature: 30 C
Method: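 MPS profiling in S. cerevisiae of the yeast C-terminome library: the last 12 aa of each annotated ORF are fused to the C-terminus of a sfGFP-mCherry timer, after a GGGS linker. Cells are FACS-sorted into 8 mCherry/sfGFP bins and deep-sequenced. PSI runs from 0 (unstable) to 1 (stable); wild type and das1Δ backgrounds, two technical replicates each.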

[1] = genetic background: das1 deletion

Sequence | protein stability index [1] | protein stability index (genetic background: wild type)
FHSMAHLSLHQY [YOR394C-A C-terminal 12 aa] | 0.7202 ± 0.00097 | 0.478 ± 0.091
NKREFIDSLRPH [AIM20 C-terminal 12 aa] | 0.71 ± 0.013 | 0.6774 ± 0.0032
GLSIDTRSAYFV [YPL251W C-terminal 12 aa] | 0.725 ± 0.019 | 0.68 ± 0.026
ELIEDPRKMLLW [KGD2 C-terminal 12 aa] | 0.694 ± 0.014 | 0.69 ± 0.033
LLMVSVVNFVPL [YPL182C C-terminal 12 aa] | 0.474 ± 0.034 | 0.479 ± 0.0093
IYKCEDERIDYF [KOG1 C-terminal 12 aa] | 0.6594 ± 0.00099 | 0.726 ± 0.015
DDNEKALTWEEL [ATG19 C-terminal 12 aa] | 0.706 ± 0.013 | 0.6976 ± 0.0069
YNKLKGAGHKKE [PAI3 C-terminal 12 aa] | 0.6777 ± 0.0045 | 0.645 ± 0.0076
FIREFVLKNYSK [SNO2 C-terminal 12 aa] | 0.669 ± 0.0099 | 0.71 ± 0.068
KKKDASQEESLI [VMA2 C-terminal 12 aa] | 0.6922 ± 0.0019 | 0.7066 ± 0.0041
TSSQYEGVALGM [EAF3 C-terminal 12 aa] | 0.695 ± 0.013 | 0.669 ± 0.0083
LLGVGIAFYQDR [YJR112W-A C-terminal 12 aa] | 0.706 ± 0.033 | 0.678 ± 0.018
FYLHGNGSDNLF [YGR153W C-terminal 12 aa] | 0.7164 ± 0.0016 | 0.711 ± 0.031
FMGLGCVISEEL [TFB3 C-terminal 12 aa] | 0.693 ± 0.01 | 0.685 ± 0.097
SWINLDFNDGDE [MDM12 C-terminal 12 aa] | 0.6957 ± 0.004 | 0.67488 ± 0.00028
IKARNMKIDRTQ [COG4 C-terminal 12 aa] | 0.681 ± 0.018 | 0.695 ± 0.041
GDYSFNGRVTDF [SDH8 C-terminal 12 aa] | 0.711 ± 0.015 | 0.697 ± 0.011
VYELVDAEALFS [YDR131C C-terminal 12 aa] | 0.745 ± 0.02 | 0.682 ± 0.012
RKCRVYVIQDAF [YER084W-A C-terminal 12 aa] | 0.6849 ± 0.0056 | 0.67829 ± 0.00013
AATNNLFIFSAL [CDC55 C-terminal 12 aa] | 0.732 ± 0.0084 | 0.713 ± 0.073
FGICAIHWGIKV [COQ5 C-terminal 12 aa] | 0.385 ± 0.02 | 0.411 ± 0.013

Sequence | protein stability index [1] | protein stability index (genetic background: wild type)
DLMISCLMNQET [MTR3 C-terminal 12 aa] | 0.712 ± 0.028 | 0.6732 ± 0.0053
QMICPSLLGIRN [YHR130C C-terminal 12 aa] | 0.721 ± 0.013 | 0.6986 ± 0.0069
IHDFPKSHIVDF [IKI3 C-terminal 12 aa] | 0.7325 ± 0.0027 | 0.733 ± 0.025
ESIEELLRKTLE [ZNG1 C-terminal 12 aa] | 0.687 ± 0.02 | 0.735 ± 0.067
CMKAVILYSEQM [ATE1 C-terminal 12 aa] | 0.675 ± 0.012 | 0.6847 ± 0.0021
FAFSFPITNVLE [YAL016C-B C-terminal 12 aa] | 0.703 ± 0.012 | 0.683 ± 0.049
GVAKSMGIKVVP [MRPL19 C-terminal 12 aa] | 0.652 ± 0.0064 | 0.686 ± 0.044
TKVIQVQKKCIQ [IRC14 C-terminal 12 aa] | 0.688 ± 0.026 | 0.672 ± 0.032
WKKDNKIQVVKN [GIM4 C-terminal 12 aa] | 0.725 ± 0.026 | 0.663 ± 0.019
DIISFTSTLHGG [URM1 C-terminal 12 aa] | 0.727 ± 0.015 | 0.705 ± 0.059
LMAKRFQTGSLK [RTS3 C-terminal 12 aa] | 0.7028 ± 0.00076 | 0.716 ± 0.043
AITSAQELLDSK [RBL2 C-terminal 12 aa] | 0.687 ± 0.024 | 0.72 ± 0.0079
NRVVLVDHNSSS [IRS4 C-terminal 12 aa] | 0.72 ± 0.024 | 0.727 ± 0.069
ISKVSNTRVCCT [YAL004W C-terminal 12 aa] | 0.6431 ± 0.0031 | 0.654 ± 0.017
HSVWSQSTINND [YML034C-A C-terminal 12 aa] | 0.725 ± 0.015 | 0.702 ± 0.066
RLLGPCFKTGGI [YLR154W-B C-terminal 12 aa] | 0.696 ± 0.0085 | 0.675 ± 0.043
FCISFPCFGLSI [AIM26 C-terminal 12 aa] | 0.679 ± 0.037 | 0.704 ± 0.003
LKEFTQFCKDNS [MIX23 C-terminal 12 aa] | 0.724 ± 0.023 | 0.721 ± 0.025
DVERVIRNAGRS [HSL1 C-terminal 12 aa] | 0.693 ± 0.0082 | 0.674 ± 0.0079
TFEELWNGVEGI [ARH1 C-terminal 12 aa] | 0.722 ± 0.016 | 0.682 ± 0.038
